This is an account of results in publication PMC10343182, “Homogeneous Electrochemical Aptamer Sensor Based on Two-Dimensional Nanocomposite Probe and Nanochannel Modified Electrode for Sensitive Detection of Carcinoembryonic Antigen”.

Data set [1] deals with T1, alpha fetoprotein (AFP) (UniProt P02771 19-609).
T1 sequence: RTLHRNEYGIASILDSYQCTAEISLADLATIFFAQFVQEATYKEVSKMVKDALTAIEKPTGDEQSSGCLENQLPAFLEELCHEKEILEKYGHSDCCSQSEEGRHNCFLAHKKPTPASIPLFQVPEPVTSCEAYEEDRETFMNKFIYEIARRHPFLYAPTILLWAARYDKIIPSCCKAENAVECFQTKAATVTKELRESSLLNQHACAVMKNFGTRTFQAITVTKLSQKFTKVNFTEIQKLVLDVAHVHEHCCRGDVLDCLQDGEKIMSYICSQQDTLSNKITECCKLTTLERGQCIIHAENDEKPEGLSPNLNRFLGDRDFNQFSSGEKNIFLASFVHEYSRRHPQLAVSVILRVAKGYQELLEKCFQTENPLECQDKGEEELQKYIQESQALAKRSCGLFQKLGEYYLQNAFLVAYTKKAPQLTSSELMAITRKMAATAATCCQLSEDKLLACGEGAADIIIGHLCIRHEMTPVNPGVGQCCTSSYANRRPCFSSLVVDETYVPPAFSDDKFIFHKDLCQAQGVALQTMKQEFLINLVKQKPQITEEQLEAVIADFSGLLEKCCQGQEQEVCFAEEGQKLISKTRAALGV
The data set is described as follows: electrochemical sensor (DPV), aptamer release from graphene oxide; Ru(NH3)6 3+, GO; PBS (sodium phosphate) 0.01 M, pH 7.4; GO 0.1 mg/mL, aptamer 1 uM, Ru(NH3)6 3+ 50 uM (optimum); temperature not stated. Conditions: protein: commercial.

In data set [2] the target is cancer antigen 153 (CA153) (UniProt P15941 24-1097). The data set is described as above. The settings on record: protein: commercial.
cancer antigen 153 (CA153), sequence (P15941 24-1097): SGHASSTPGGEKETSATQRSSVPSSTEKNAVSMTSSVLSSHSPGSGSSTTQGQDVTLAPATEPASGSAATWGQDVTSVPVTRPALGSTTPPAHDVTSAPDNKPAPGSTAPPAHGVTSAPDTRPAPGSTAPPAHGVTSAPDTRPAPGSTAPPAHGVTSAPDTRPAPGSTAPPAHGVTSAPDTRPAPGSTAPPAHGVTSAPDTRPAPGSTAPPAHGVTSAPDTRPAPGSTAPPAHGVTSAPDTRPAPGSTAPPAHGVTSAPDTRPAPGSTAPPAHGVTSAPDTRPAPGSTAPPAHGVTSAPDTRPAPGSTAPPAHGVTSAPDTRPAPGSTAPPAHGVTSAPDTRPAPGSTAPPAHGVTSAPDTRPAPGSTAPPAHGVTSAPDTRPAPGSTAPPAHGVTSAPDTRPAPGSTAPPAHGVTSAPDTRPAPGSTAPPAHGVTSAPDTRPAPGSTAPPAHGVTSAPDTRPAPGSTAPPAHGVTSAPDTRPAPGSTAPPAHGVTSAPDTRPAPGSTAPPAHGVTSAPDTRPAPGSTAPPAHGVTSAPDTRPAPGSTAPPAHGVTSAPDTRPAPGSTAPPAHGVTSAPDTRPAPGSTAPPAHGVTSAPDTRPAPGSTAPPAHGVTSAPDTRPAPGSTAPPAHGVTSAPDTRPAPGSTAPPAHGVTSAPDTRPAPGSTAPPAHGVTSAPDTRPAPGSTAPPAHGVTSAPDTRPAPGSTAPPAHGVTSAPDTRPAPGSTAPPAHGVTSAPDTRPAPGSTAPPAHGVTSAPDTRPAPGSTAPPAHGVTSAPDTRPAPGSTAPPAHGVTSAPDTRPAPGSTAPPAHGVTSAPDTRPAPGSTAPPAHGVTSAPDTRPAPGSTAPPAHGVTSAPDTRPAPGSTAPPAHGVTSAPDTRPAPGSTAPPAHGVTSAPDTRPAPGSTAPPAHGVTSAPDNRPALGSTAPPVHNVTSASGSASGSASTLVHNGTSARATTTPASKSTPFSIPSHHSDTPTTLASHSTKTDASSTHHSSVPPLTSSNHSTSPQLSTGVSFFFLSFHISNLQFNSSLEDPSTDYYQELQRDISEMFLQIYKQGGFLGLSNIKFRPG
Data set [3] deals with prostate specific antigen (PSA) (UniProt P07288 25-261). The description is as above. The settings on record: protein: commercial.
prostate specific antigen (PSA), sequence (P07288 25-261): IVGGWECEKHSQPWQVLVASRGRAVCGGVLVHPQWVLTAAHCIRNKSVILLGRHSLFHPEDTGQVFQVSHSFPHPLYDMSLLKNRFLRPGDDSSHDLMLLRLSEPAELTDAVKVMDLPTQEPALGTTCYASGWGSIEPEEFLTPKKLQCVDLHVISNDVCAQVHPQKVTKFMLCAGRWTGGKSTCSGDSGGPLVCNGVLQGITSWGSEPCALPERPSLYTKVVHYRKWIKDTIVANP
In data set [4] the target is T2, C-reactive protein (CRP) (UniProt P02741 19-224).
T2 sequence: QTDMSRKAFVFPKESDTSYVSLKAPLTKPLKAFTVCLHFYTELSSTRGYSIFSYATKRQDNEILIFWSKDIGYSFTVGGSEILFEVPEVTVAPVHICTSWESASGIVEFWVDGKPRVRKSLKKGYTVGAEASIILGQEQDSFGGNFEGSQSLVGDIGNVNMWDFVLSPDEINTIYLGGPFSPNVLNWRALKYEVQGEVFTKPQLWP
The data set is described as above. Conditions: protein: commercial; chain copies: 5.

Data set [5] addresses carcinoembryonic antigen (CEA) (UniProt P06731 35-685). The data set is described as follows: electrochemical sensor (DPV/CV), aptamer release from graphene oxide; Ru(NH3)6 3+, GO; sensor LOD 14 fg/mL, linear 60 fg/mL-100 ng/mL (not Kd); PBS (sodium phosphate) 0.01 M, pH 7.4; GO 0.1 mg/mL, aptamer 1 uM, Ru(NH3)6 3+ 50 uM (optimum); temperature not stated. Conditions: protein: commercial.

carcinoembryonic antigen (CEA), sequence (P06731 35-685): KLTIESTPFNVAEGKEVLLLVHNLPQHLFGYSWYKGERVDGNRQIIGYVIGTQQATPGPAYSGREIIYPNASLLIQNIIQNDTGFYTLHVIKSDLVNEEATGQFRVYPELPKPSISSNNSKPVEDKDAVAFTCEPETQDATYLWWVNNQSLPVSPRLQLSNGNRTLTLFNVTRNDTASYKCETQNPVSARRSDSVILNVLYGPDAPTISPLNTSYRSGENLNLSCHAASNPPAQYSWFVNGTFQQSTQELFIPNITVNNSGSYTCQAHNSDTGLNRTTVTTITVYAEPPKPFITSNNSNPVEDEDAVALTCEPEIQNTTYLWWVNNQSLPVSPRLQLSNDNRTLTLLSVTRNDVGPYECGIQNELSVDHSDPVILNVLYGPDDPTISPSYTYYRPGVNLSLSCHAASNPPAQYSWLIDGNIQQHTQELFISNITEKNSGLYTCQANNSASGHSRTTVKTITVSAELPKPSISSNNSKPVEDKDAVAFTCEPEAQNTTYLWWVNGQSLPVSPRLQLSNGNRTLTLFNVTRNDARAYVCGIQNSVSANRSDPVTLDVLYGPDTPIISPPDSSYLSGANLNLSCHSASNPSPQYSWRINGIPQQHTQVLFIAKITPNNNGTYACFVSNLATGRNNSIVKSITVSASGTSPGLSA

Turning to ATACAGCTTCAATT (ssDNA, 3'-NH2) [CEA aptamer (Apt)], the binding result is recorded as “no binding” in data set [1]; “no binding” in data set [2]; “no binding” in data set [3]; “no binding” in data set [4]; “binds” in data set [5].
